Measurements published in ChEMBL document CHEMBL1156468, “Crystal structures of Saccharomyces cerevisiae N-myristoyltransferase with bound myristoyl-CoA and inhibitors reveal the functional roles of the N-terminal region” (J Biol Chem, 2007).

What was measured:
[1] = target: T1, Glycylpeptide N-tetradecanoyltransferase (Saccharomyces cerevisiae S288c, UniProt P14743); experiment: Inhibition of Saccharomyces cerevisiae NMT
T1 sequence (P14743 whole entry): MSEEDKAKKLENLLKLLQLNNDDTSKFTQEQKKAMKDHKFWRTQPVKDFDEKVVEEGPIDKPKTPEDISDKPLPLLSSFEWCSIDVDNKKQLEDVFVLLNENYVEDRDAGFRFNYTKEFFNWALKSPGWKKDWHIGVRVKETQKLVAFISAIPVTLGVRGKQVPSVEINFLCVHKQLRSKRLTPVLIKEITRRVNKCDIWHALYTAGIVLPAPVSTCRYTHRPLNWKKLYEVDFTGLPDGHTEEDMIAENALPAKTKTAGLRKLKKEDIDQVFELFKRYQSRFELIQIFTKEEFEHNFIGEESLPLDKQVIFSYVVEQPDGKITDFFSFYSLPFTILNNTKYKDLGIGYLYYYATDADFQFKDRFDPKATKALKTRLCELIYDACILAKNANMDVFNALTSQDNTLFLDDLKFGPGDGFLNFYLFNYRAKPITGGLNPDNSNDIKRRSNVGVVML

[2] = substrate: CC(C)C[C@H](NC(=O)CN)C(=O)N[C@@H](Cc1ccccc1)C(=O)N[C@@H](C)C(=O)N[C@@H](CO)C(=O)N[C@@H](CCCCN)C(=O)N[C@@H](CC(C)C)C(=O)N[C@@H](Cc1ccccc1)C(=O)O; experiment: Ratio of kcat to Km for Saccharomyces cerevisiae wild type NMT
[3] = substrate: CC(C)C[C@H](NC(=O)CN)C(=O)N[C@@H](Cc1ccccc1)C(=O)N[C@@H](C)C(=O)N[C@@H](CO)C(=O)N[C@@H](CCCCN)C(=O)N[C@@H](CC(C)C)C(=O)N[C@@H](Cc1ccccc1)C(=O)O; experiment: Activity of Saccharomyces cerevisiae wild type NMT assessed as production of coenzyme A after 1 hr
[4] = substrate: CC(C)C[C@H](NC(=O)CN)C(=O)N[C@@H](Cc1ccccc1)C(=O)N[C@@H](C)C(=O)N[C@@H](CO)C(=O)N[C@@H](CCCCN)C(=O)N[C@@H](CC(C)C)C(=O)N[C@@H](Cc1ccccc1)C(=O)O; experiment: Activity of Saccharomyces cerevisiae NMT D106K mutant assessed as production of coenzyme A after 1 hr
[5] = substrate: CC(C)C[C@H](NC(=O)CN)C(=O)N[C@@H](Cc1ccccc1)C(=O)N[C@@H](C)C(=O)N[C@@H](CO)C(=O)N[C@@H](CCCCN)C(=O)N[C@@H](CC(C)C)C(=O)N[C@@H](Cc1ccccc1)C(=O)O; experiment: Ratio of kcat to Km for Saccharomyces cerevisiae NMT D106K mutant
[6] = substrate: CC(C)C[C@H](NC(=O)CN)C(=O)N[C@@H](Cc1ccccc1)C(=O)N[C@@H](C)C(=O)N[C@@H](CO)C(=O)N[C@@H](CCCCN)C(=O)N[C@@H](CC(C)C)C(=O)N[C@@H](Cc1ccccc1)C(=O)O; experiment: Activity of Saccharomyces cerevisiae NMT D108K mutant assessed as production of coenzyme A after 1 hr
[7] = substrate: CC(C)C[C@H](NC(=O)CN)C(=O)N[C@@H](Cc1ccccc1)C(=O)N[C@@H](C)C(=O)N[C@@H](CO)C(=O)N[C@@H](CCCCN)C(=O)N[C@@H](CC(C)C)C(=O)N[C@@H](Cc1ccccc1)C(=O)O; experiment: Ratio of kcat to Km for Saccharomyces cerevisiae NMT D108K mutant

Question: For `Cc1nccn1CCCCc1ccc(CC(=O)N[C@@H](CO)C(=O)N[C@@H](CCCCN)C(=O)NCCC2CCCCC2)cc1` [SC-58272], which IC50 [1] is on record?
Answer: The IC50 was 24 nM.

Question: `CCCCCCCCCCCCCC(=O)CSCCNC(=O)CCNC(=O)C(O)C(C)(C)COP(=O)(O)OP(=O)(O)OC[C@H]1O[C@@H](n2cnc3c(N)ncnc32)[C@H](O)[C@@H]1OP(=O)(O)O` (stereo partly specified) was tested. Which IC50 [1] did it give?
Answer: Its IC50 is 50 nM.

B1: Glycylpeptide N-tetradecanoyltransferase (Saccharomyces cerevisiae S288c), P14743 (protein)
chain: MSEEDKAKKLENLLKLLQLNNDDTSKFTQEQKKAMKDHKFWRTQPVKDFDEKVVEEGPIDKPKTPEDISDKPLPLLSSFEWCSIDVDNKKQLEDVFVLLNENYVEDRDAGFRFNYTKEFFNWALKSPGWKKDWHIGVRVKETQKLVAFISAIPVTLGVRGKQVPSVEINFLCVHKQLRSKRLTPVLIKEITRRVNKCDIWHALYTAGIVLPAPVSTCRYTHRPLNWKKLYEVDFTGLPDGHTEEDMIAENALPAKTKTAGLRKLKKEDIDQVFELFKRYQSRFELIQIFTKEEFEHNFIGEESLPLDKQVIFSYVVEQPDGKITDFFSFYSLPFTILNNTKYKDLGIGYLYYYATDADFQFKDRFDPKATKALKTRLCELIYDACILAKNANMDVFNALTSQDNTLFLDDLKFGPGDGFLNFYLFNYRAKPITGGLNPDNSNDIKRRSNVGVVML
Question: With B1 as the molecule, how does the kcat/Km [2] read?
Answer: Its kcat/Km is 2.24 ×10⁵ /M/s.

Question: What about the Km [3] of the same molecule?
Answer: The Km was 13.7 µM.

Question: And the kcat [3]?
Answer: Its kcat is 3.06 s⁻¹.

B2: Glycylpeptide N-tetradecanoyltransferase (Saccharomyces cerevisiae S288c), P14743 D106K (protein)
chain: MSEEDKAKKLENLLKLLQLNNDDTSKFTQEQKKAMKDHKFWRTQPVKDFDEKVVEEGPIDKPKTPEDISDKPLPLLSSFEWCSIDVDNKKQLEDVFVLLNENYVEKRDAGFRFNYTKEFFNWALKSPGWKKDWHIGVRVKETQKLVAFISAIPVTLGVRGKQVPSVEINFLCVHKQLRSKRLTPVLIKEITRRVNKCDIWHALYTAGIVLPAPVSTCRYTHRPLNWKKLYEVDFTGLPDGHTEEDMIAENALPAKTKTAGLRKLKKEDIDQVFELFKRYQSRFELIQIFTKEEFEHNFIGEESLPLDKQVIFSYVVEQPDGKITDFFSFYSLPFTILNNTKYKDLGIGYLYYYATDADFQFKDRFDPKATKALKTRLCELIYDACILAKNANMDVFNALTSQDNTLFLDDLKFGPGDGFLNFYLFNYRAKPITGGLNPDNSNDIKRRSNVGVVML
Question: What does the source list for B2?
Answer: Km [4]: 30.6 µM; kcat [4]: 2.65 s⁻¹; kcat/Km [5]: 8.65 ×10⁴ /M/s

B3: Glycylpeptide N-tetradecanoyltransferase (Saccharomyces cerevisiae S288c), P14743 D108K (protein)
chain: MSEEDKAKKLENLLKLLQLNNDDTSKFTQEQKKAMKDHKFWRTQPVKDFDEKVVEEGPIDKPKTPEDISDKPLPLLSSFEWCSIDVDNKKQLEDVFVLLNENYVEDRKAGFRFNYTKEFFNWALKSPGWKKDWHIGVRVKETQKLVAFISAIPVTLGVRGKQVPSVEINFLCVHKQLRSKRLTPVLIKEITRRVNKCDIWHALYTAGIVLPAPVSTCRYTHRPLNWKKLYEVDFTGLPDGHTEEDMIAENALPAKTKTAGLRKLKKEDIDQVFELFKRYQSRFELIQIFTKEEFEHNFIGEESLPLDKQVIFSYVVEQPDGKITDFFSFYSLPFTILNNTKYKDLGIGYLYYYATDADFQFKDRFDPKATKALKTRLCELIYDACILAKNANMDVFNALTSQDNTLFLDDLKFGPGDGFLNFYLFNYRAKPITGGLNPDNSNDIKRRSNVGVVML
Question: Which Km [6] does the source give for B3 here?
Answer: Its Km is 13.9 µM.

Question: And the kcat [6]?
Answer: The kcat was 1.94 s⁻¹.

Question: What about the kcat/Km [7] of the same molecule?
Answer: The kcat/Km was 1.4 ×10⁵ /M/s.
